Measured values reported in patent publication US5807943A, “Synthesis of glycopolymers” (Johns Hopkins University, priority 1997, dated 1998).

How the values were obtained:
liver-MBP-CRD = target: T1, liver-MBP-CRD (Rattus norvegicus, UniProt P08661); assay: Solid-phase binding assay, inhibition of 125I-[mannose30-BSA] binding to liver MBP-CRD
T1 construct: Recombinant rat MBP-CRDs from serum and liver were expressed and purified; made in house; host or cells: bacteria (expression plasmid-bearing bacterial strains, gift of Dr. Kurt Drickamer)
T1 sequence (P08661 129-241 limits assumed): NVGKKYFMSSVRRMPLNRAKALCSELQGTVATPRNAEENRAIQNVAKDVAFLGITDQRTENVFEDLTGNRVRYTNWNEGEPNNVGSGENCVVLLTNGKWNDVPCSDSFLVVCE
Experimental: (§1) Glycoamidase A was from Seikagaku America, Inc. (Rockville, Md.). GlcNAc was purchased from Pfanstiehl Laboratories, Inc. (Waukegan, Ill.). 3-(N-acryloylamino)-propyl β-D-GlcNAc (GlcNAc-NAP) and GlcNAc-O-(CH2)3CH=CH2 were gifts from Dr. Shin-Ichiro Nishimura of Hokkaido University, Japan.
(§2) All steps were carried out at 4° C. Briefly, CRD (50 μl) was coated onto individual polystyrene wells (Immulon 4 Removawell Strips by Dynatech, from Fisher Scientific). […] Ligands and inhibitors were in 0.5% BSA in the above Tris buffer for binding and inhibition. […] The well contents were then removed, washed, and counted in a Packard Minaxi gamma counter.

serum-MBP-CRD = target: T2, serum-MBP-CRD (Rattus norvegicus, UniProt P19999); assay: Solid-phase binding assay, inhibition of 125I-[mannose30-BSA] binding to serum MBP-CRD; settings: in the concentration range of SBA tested
T2 construct: Recombinant rat MBP-CRDs from serum and liver were expressed and purified; made in house; host or cells: bacteria (expression plasmid-bearing bacterial strains, gift of Dr. Kurt Drickamer)
Experimental: as §1, §2

IC50 (liver-MBP-CRD; concentration based on Man9 GlcNAc2, 4° C., 20 hr incubation, read-out: I50 for the liver-MBP-CRD): 13.2 µM | I50 for the liver-MBP-CRD (liver-MBP-CRD; expressed as mg/ml of SBA): 0.4 mg/mL | inhibition of the serum-MBP-CRD (in words) (serum-MBP-CRD): no significant inhibition
Substance: soybean agglutinin [SBA]
